Experimental findings from patent US11110182B2, “Multifunctional RNA nanoparticles and methods for treating cancer and therapeutic resistant cancer” (University of Cincinnati, priority 2016, dated 2021) are described below.

The test system of this data set is MED1. The data set is described as follows: MED1 protein level by western blotting in BT474 cells. In kind it is cell-based, human. Conditions: 48 h; for MED1 protein level after transfection with lipofectamine 2000: BT474, transfected. The procedure:
FIG. 3A) BT474 cells were incubated with 10 μg/mL control and pRNA-HER2apt-siMED1 nanoparticles for 48 h, and MED1 mRNA level was determined by real-time PCR. FIG. 3B) BT474 cells were incubated directly with (as indicated by -) or transfected with indicated pRNAs using lipofectamine 2000. At 48 h post treatment, MED1 protein levels were determined by western blotting. FIG. 3C) BT474 cells were treated with 10 μg/mL pRNA nanoparticles for 48 h and assayed for cell viability by MTT assay. FIG. 3D) Cells were treated as above and seeded for migration, and FIG. 3E) invasion transwell assays. Scale bar: 50 μm. FIG. 3F) After pRNA treatment for 48 h, the mRNA levels of ERα target genes TFF-1, FIG. 3G) c-Myc, and FIG. 3H) cyclin D1 in BT474 cells were determined by real-time PCR.
FIG. 7A) Six HER2-targeting RNA aptamers were selected from previous literatures, and their secondary structures were predicted using Srna-fold software. FIG. 7B) Six p2 strands containing the six different HER2 RNA aptamers were synthesized and annealed with the same p1 strand to generate six different pRNA-HER2apt-MED1 siRNA nanoparticles, respectively, followed by examination using 8% native PAGE gel electrophoresis. FIG. 7C) BT474 cells were treated with above pRNA nanoparticles for 48 h, and then MED1 protein level was determined by western blotting. […] FIG. 7D) 1 μg pRNA nanoparticles were incubated with recombinant Dicer enzyme (Genlantis) at 37° C. for 12 h, the product was separated by 8% native PAGE gel.
FIG. 9A) BT474 cells were treated with different concentrations of pRNA nanoparticles as indicated for 48 h. After that, MED1 protein level was determined by western blots, and FIG. 9B) the cell viability was determined by MTT assay.
Cell culture. Human breast cancer luciferase-overexpressing BT474 and MDA-MB-231 cells were maintained in DMEM medium (Hyclone, Thermo Scientific) supplemented with 10% fetal bovine serum (FBS, Sigma) and 1% penicillin/streptomycin (Corning) at 37° C. in a humidified atmosphere with 5% CO2.^53 • Generation of pRNA nanoparticles. The two strands of pRNA were synthesized with the DNA templates, which were amplified with overlapping primers (Sigma) by PCR methods, using a T7 promoter-controlled in vitro RNA transcription system as previously described^33 (Table 1). All the CTP and UTP used for synthesis of the pRNA nanoparticles were 2′-fluoro modified, except the control unmodified pRNA nanoparticles used in the stability assays. Following an overnight transcription at 37° C., RNA strands were purified using RNA clean and concentrator kits (ZYMO research) and examined by 8 M urea denatured 8% PAGE gel. pRNA nanoparticles were assembled by mixing the equal molar amounts of p1 and p2 strands and gradually annealing from 90° C. to 20° C. in 1×RNA annealing buffer containing 50 mM Tris-HCl (pH 7.5), 50 mM NaCl and 1 mM EDTA on a PCR machine. […] The hydrodynamic diameter and Tm value of pRNA nanoparticles were determined using dynamic light scattering and TGGE assay, respectively, as previously described.^54 The AFM imaging of the pRNA nanoparticles was performed at the University of Nebraska Medical Center imaging facility as previously reported.^55 Briefly, the pRNA nanoparticles (5 μL) were deposited on APS modified mica ^56 for a total of 2 min of incubation time. […]

B1: pRNA-HER2apt-siMED1: 3-WJ pRNA nanoparticle bearing a HER2-targeting RNA aptamer and two different MED1 siRNAs; strands p1 SEQ ID NO: 3, p2 SEQ ID NO: 4 (nucleic acid)
chain 1: GGACAGUGAAAGUGAGUCAAAGGAUCAAUCAUGGCCAAAGAUGUUACUUUGAGAGCCUU
chain 2: GGCUCUCAAAGUAACAUCUAAGGCCAUGUGUAUGUGGGGGGAGGACGAUGCGGUCUGCUGUGCUUGAUAUGCCCCAGACGACUCGCCCCCCACAUACUUUGUUGAUCCAAUGACUCACUUUCACUGUCCUU
modifications: 2'-F modification; third strand may lack entry; pRNA-HER2apt-siMED1, p1; pRNA-HER2apt-siMED1, p2
On to B1, for which the “MED1 protein level after transfection with lipofectamine 2000” value is given as “MED1 silencing”. Moreover, the “dose dependence of decrease of MED1 protein level” value (BT474, different concentrations) is listed as “dose-dependent manner”. Besides, the MED1 protein level entry (BT474, direct incubation) is “greatly reduced”.

B2: pRNA-HER2apt^mut-siMED1: control pRNA nanoparticle with mutant HER2 aptamer; strands p1 SEQ ID NO: 5, p2 SEQ ID NO: 6 (nucleic acid)
chain 1: B1 chain 1
chain 2: GGCUCUCAAAGUAACAUCUAAGGCCAUGUGUAUGUGGGAUGAGGAGUAUGAAGAUACCUGUACUUGAUAUGCCCCAGACGACAUUCCCCCCACAUACUUUGUUGAUCCAAUGACUCACUUUCACUGUCCUU
modifications: pRNA-HER2apt(mut)-siMED1, p1; pRNA-HER2apt(mut)-siMED1, p2
For B2, the “MED1 protein level after transfection with lipofectamine 2000” value is reported as “MED1 silencing”.
